Reference: US20260008818A1, “CYCLIC PEPTIDE OR SALT THEREOF, AND USES THEREOF” (FUJIFILM Corporation, priority 2023, published 2026)
Bridge positions count the residues as written; N and C are the ends. Ends that are not written are not given here. COCH2 = acetyl group that carries the bridge

Experiments:
[1] = biological target: T1, FGFR1 Protein, Human, Recombinant (His Tag) (Sino Biological, 10616-H08H) (human, UniProt P11362 22-376); experiment: SPR, peptide immobilized, 1 umol/L FGFR
T1 construct: bought reagent; not shown: His tag
T1 sequence (looked up): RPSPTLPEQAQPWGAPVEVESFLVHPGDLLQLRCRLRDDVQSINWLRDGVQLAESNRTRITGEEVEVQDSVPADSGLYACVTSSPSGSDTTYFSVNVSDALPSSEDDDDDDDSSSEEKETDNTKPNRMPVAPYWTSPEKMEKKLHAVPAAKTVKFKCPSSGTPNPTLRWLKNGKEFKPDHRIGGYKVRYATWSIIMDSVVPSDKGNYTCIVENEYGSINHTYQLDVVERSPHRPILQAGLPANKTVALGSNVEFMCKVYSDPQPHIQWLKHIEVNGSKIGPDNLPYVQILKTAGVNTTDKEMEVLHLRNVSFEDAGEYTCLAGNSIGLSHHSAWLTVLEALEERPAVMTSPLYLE
Experimental: (§1) A CM5 sensor chip (Cytiva, 29149603) was set in Biacore-T200 (manufactured by Cytiva) which is a surface plasmon resonance device, and an HBS-EP buffer (Cytiva, BR100826) was added as a running buffer at a flow rate of 10 μL/min to equilibrate the flow channel. Next, 70 μL of a mixed aqueous solution of 0.2 mol/L 1-(3-dimethylaminopropyl)-3-ethylcarbodiimide (EDC) and 0.05 mol/L N-hydroxysuccinimide (NHS) was added to activate the sensor chip. Then, a cyclic peptide prepared to 2 mg/mL in HBS-EP buffer was added thereto to perform immobilization at about 200 RU. Thereafter, the blocking treatment was performed with an ethanolamine solution. In addition, in another flow channel of the same sensor chip, blocking treatment was performed immediately after activation without […].
(§2) After various FGFRs (FGFR1 Protein, Human, Recombinant (His Tag) (Sino Biological, 10616-H08H), FGFR3 Protein, Human, Recombinant (ECD, His Tag) (Sino Biological, 16044-H08H), FGFR4 Protein, Human, Recombinant (His Tag) (Sino Biological, 10538-H08H)) diluted with HBS-EP to 1 μmol/L at 25° C. was added to each flow channel of the cyclic peptide-immobilized sensor chip prepared above, for 10 minutes, HBS-EP was allowed to flow as a running buffer for 30 minutes, and the binding of various FGFRs to the cyclic peptide was measured. […] The binding amount of the cyclic peptide was evaluated from the difference between the measured value of Biacore-T200 in the flow channel in which the cyclic peptide was immobilized and the measured value of Biacore-T200 in the flow channel in which the cyclic peptide was not immobilized, in a case where 1 μmol/L FGFR was allowed to flow.
(§3) The binding amount of FGFR evaluated above was normalized to the binding amount of FGFR molecules per one molecule of the cyclic peptide using the molecular weights of the cyclic peptide and FGFR, and the binding affinity to FGFR was evaluated according to the following evaluation criteria.

[2] = biological target: T2, FGFR3 Protein, Human, Recombinant (ECD, His Tag) (Sino Biological, 16044-H08H) (human, UniProt P22607 23-375); experiment: SPR, peptide immobilized, 1 umol/L FGFR
T2 construct: extracellular domain; bought reagent; not shown: His tag
T2 sequence (looked up): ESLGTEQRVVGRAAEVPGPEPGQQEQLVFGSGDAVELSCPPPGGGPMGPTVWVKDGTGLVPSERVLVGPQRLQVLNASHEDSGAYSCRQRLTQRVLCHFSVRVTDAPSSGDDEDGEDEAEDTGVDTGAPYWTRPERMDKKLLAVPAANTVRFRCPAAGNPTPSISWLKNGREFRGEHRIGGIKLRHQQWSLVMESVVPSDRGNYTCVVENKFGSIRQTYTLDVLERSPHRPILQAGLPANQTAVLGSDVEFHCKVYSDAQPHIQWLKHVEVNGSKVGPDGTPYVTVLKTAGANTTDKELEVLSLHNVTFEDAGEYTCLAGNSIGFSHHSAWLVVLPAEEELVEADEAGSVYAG
Experimental: as §1, §2, §3

[3] = biological target: T3, FGFR4 Protein, Human, Recombinant (His Tag) (Sino Biological, 10538-H08H) (human, UniProt P22455 22-369); experiment: SPR, peptide immobilized, 1 umol/L FGFR
T3 construct: bought reagent; not shown: His tag
T3 sequence (looked up): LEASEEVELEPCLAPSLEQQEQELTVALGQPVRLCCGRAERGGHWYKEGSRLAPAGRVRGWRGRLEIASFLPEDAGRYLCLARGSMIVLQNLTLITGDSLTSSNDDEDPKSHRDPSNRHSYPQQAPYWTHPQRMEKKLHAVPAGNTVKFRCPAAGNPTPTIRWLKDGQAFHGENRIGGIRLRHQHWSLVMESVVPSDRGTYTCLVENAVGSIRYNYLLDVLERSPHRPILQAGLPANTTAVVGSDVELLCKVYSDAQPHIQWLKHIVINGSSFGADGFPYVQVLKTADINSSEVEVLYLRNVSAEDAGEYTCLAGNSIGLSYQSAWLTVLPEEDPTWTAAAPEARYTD
Experimental: as §1, §2, §3

[4] = biological target: T4, Recombinant Human FGFR1 alpha (IIIc) Fc Chimera Protein, CF (R&D systems, 658-FR-050) (human, UniProt P11362 22-376); experiment: SPR, FGFR1-Fc immobilized, 10 nmol/L peptide
T4 construct: bought reagent; not shown: Fc of the bought chimera
T4 sequence (looked up): T1 sequence (looked up)
Experimental: A CM5 sensor chip (Cytiva, 29149603) was set in Biacore-T200 (manufactured by Cytiva) which is a surface plasmon resonance device, and an HBS-EP buffer (Cytiva, BR100826) was added as a running buffer at a flow rate of 10 μL/min to equilibrate the flow channel. Next, 70 μL of a mixed aqueous solution of 0.2 mol/L 1-(3-dimethylaminopropyl)-3-ethylcarbodiimide (EDC) and 0.05 mol/L N-hydroxysuccinimide (NHS) was added to activate the sensor chip. Then, Recombinant Human FGFR 1 alpha (IIIc) Fc Chimera Protein CF (R&D systems, 658-FR-050) prepared at 50 nmol/L in an Acetate 4.5 buffer (Cytiva, BR100350) was added thereto to perform immobilization at about 5000 RU. Thereafter, the blocking treatment was performed with an ethanolamine solution. In addition, in another flow channel of the same sensor chip, blocking treatment was performed immediately after activation without immobilizing FGFR.
A cyclic peptide diluted to 10 nmol/L using HBS-EP was added to each flow channel of the FGFR-immobilized sensor chip produced above at 25° C. for 10 minutes, then HBS-EP was allowed to flow as a running buffer for 30 minutes, and the binding of the cyclic peptide to FGFR was measured. Thereafter, a regeneration treatment of removing the bound cyclic peptide was performed by repeating the flow of a regeneration liquid in which sodium chloride powder was dissolved in Glysine 1.5 (Cytiva, BR100354) to a final concentration of 0.15 mol/L for 1 minute in each flow channel twice. The binding amount of the cyclic peptide was evaluated from the difference between the measured value of Biacore-T200 in the flow channel in which FGFR was immobilized and the measured value of Biacore-T200 in the flow channel in which FGFR was not immobilated, in a case where a 10 nmol/L cyclic peptide was allowed to flow.

## HCSYERLQFHGHEAPFRVK(COCH2)VKKK (thioether 2-19; also: acetyl defined on Orn side-chain amine, here on K, chemically synthesized) [SEQ ID NO: 382]
[1]
  binding amount (SPR, FGFR molecules bound per molecule of cyclic peptide at 1 umol/L FGFR): ≥ 0.05 moleculesoffgfr/onemoleculeofthecyclicpeptide
[2]
  binding amount (SPR, FGFR molecules bound per molecule of cyclic peptide at 1 umol/L FGFR): 0.01 to 0.05 moleculesoffgfr/onemoleculeofthecyclicpeptide
[3]
  binding amount (SPR, FGFR molecules bound per molecule of cyclic peptide at 1 umol/L FGFR): ≥ 0.05 moleculesoffgfr/onemoleculeofthecyclicpeptide
[4]
  binding amount (SPR, cyclic peptide molecules bound per one molecule of FGFR at 10 nmol/L peptide): ≥ 0.7 moleculesofthecyclicpeptide/onemoleculeoffgfr
